Positions count from the first letter of the chain named. Like-named read-outs stand apart in the source and are kept apart here.
B1: VH4/VK4 humanized 11C12 antibody (antibody, human IgG1, kappa, V domains shown)
VH: EVQLVESGGGLVQPGGSLKLSCAASGFTFSTFGIHWVRQAPGKGLEWVAYISGASTTIYYADTVKGRFTISRDNSKNTLYLQMNSLRAEDTAVYYCARYGTSFPYGLDYWGQGTLVTVSS
VL: DIVMTQSPDSLAVSLGERATINCKSSQSVDYDGDSYMNWYQQKPGKAPKLLIYGASNLESGIPDRFSGSGSGTDFTLTISRLEPEDAASYYCQQSNEDPFTFGQGTKLEIKR
notes: Human IgG1/kappa; lead variant, tested as HEK supernatant and as protein purified from CHO; also called H4K4
B2: anti-human EphA5 monoclonal murine antibody 11C12 (antibody, V domains shown)
VH: B1 VH with Q3T, V5K, L18R, G42E, S75P, Y80F, N84T, A88S, V93M, L115S
VL: DIVMTQSPGSLAVSLGQRATISCKASQSVDYDGDSYMNWYQQKPGQPPKLLIYGASNLESGIPARFSGSGSGTDFTLNIHPVEEEDAASYYCQQSNEDPFTFGSGTKLEIK
notes: Full murine antibody; also called murine 11C12; mouse 11C12
B3: chimeric VH0/VK0 antibody (murine 11C12 variable regions, human IgG1/kappa constant regions) (antibody, V domains shown)
VH: B1 VH with Q3T, V5K, L18R, G42E, S75P, Y80F, N84T, A88S, V93M, L115S
VL: DIVMTQSPGSLAVSLGQRATISCKASQSVDYDGDSYMNWYQQKPGQPPKLLIYGASNLESGIPARFSGSGSGTDFTLNIHPVEEEDAASYYCQQSNEDPFTFGSGTKLEIKR
notes: also called chimeric antibody
B4: VH1/VK0 (antibody, human IgG1, kappa, V domains shown)
VH: B1 VH with Q3T, L18R, A88S, V93M, L115S
VL: B3 VL
notes: tested as HEK supernatant; also called control antibody (humanized VH1 heavy chain with chimeric light chain)
B5: VH3/VK4 humanized 11C12 antibody (antibody, human IgG1, kappa)
heavy: not shown
light: DIVMTQSPDSLAVSLGERATINCKSSQSVDYDGDSYMNWYQQKPGKAPKLLIYGASNLESGIPDRFSGSGSGTDFTLTISRLEPEDAASYYCQQSNEDPFTFGQGTKLEIKRTVAAPSVFIFPPSDEQLKSGTASVVCLLNNFYPREAKVQWKVDNALQSGNSQESVTEQDSKDSTYSLSSTLTLSKADYEKHKVYACEVTHQGLSSPVTKSFNRGEC
notes: Human IgG1/kappa; lead variant, tested as HEK supernatant and as protein purified from CHO; also called H3K4
B6: VH6/VK2 humanized 11C12 antibody (antibody, human IgG1, kappa, V domains shown)
VH: B1 VH with Y50S, T63S
VL: B1 VL with S25A
notes: Human IgG1/kappa; tested as HEK293 EBNA supernatant; also called H6K2
B7: VH6/VK5 humanized 11C12 antibody (antibody, human IgG1, kappa, V domains shown)
VH: B1 VH with Y50S, T63S
VL: B1 VL with S89V
notes: Human IgG1/kappa; tested as HEK293 EBNA supernatant; also called H6K5
B8: VH5/VK1 humanized 11C12 antibody (antibody, human IgG1, kappa, V domains shown)
VH: B1 VH with T63S
VL: B1 VL with D9G, S25A, P84E
notes: Human IgG1/kappa; tested as HEK293 EBNA supernatant; also called H5K1
B9: VH6/VK4 humanized 11C12 antibody (antibody, human IgG1, kappa, V domains shown)
VH: B1 VH with Y50S, T63S
VL: B1 VL
notes: Human IgG1/kappa; tested as HEK293 EBNA supernatant; also called H6K4
B10: VH5/VK5 humanized 11C12 antibody (antibody, human IgG1, kappa, V domains shown)
VH: B1 VH with T63S
VL: B1 VL with S89V
notes: Human IgG1/kappa; tested as HEK293 EBNA supernatant; also called H5K5
B11: VH4/VK3 humanized 11C12 antibody (antibody, human IgG1, kappa)
heavy: not shown
light: B5 light with S25A, S89V
notes: Human IgG1/kappa; lead variant, tested as HEK supernatant and as purified protein; also called H4K3; EPHA5 H4K3
B12: VH6/VK1 humanized 11C12 antibody (antibody, human IgG1, kappa, V domains shown)
VH: B1 VH with Y50S, T63S
VL: B1 VL with D9G, S25A, P84E
notes: Human IgG1/kappa; tested as HEK293 EBNA supernatant; also called H6K1
B13: VH5/VK3 humanized 11C12 antibody (antibody, human IgG1, kappa)
heavy: not shown
light: B5 light with S25A, S89V
notes: Human IgG1/kappa; lead variant, tested as HEK supernatant and as purified protein; also called H5K3; EPHA5 H5K3
B14: VH6/VK3 humanized 11C12 antibody (antibody, human IgG1, kappa, V domains shown)
VH: B1 VH with Y50S, T63S
VL: B1 VL with S25A, S89V
notes: Human IgG1/kappa; tested as HEK293 EBNA supernatant; also called H6K3
B15: VH5/VK2 humanized 11C12 antibody (antibody, human IgG1, kappa, V domains shown)
VH: B1 VH with T63S
VL: B1 VL with S25A
notes: Human IgG1/kappa; lead variant, tested as HEK supernatant and as protein purified from CHO; also called H5K2
B16: VH5/VK4 humanized 11C12 antibody (antibody, human IgG1, kappa, V domains shown)
VH: B1 VH with T63S
VL: B1 VL
notes: Human IgG1/kappa; lead variant, tested as HEK supernatant and as protein purified from CHO; also called H5K4

Columns and labels:
[1] = target: T1, human EPH receptor A5 (EphA5) expressed on cells (human, UniProt P54756 25-1037); experiment: flow cytometry on H460 (EphA5+) cells, starting assay concentration 10 µg/mL
T1 construct: Cell line (H460 stably expressing EphA5; HEK-293T transfected with EPHA5 clone or wild-type construct; lung cancer lines with endogenous or variable expression); also called cell-surface EphA5; wild-type target protein
Experimental: Samples were prepared at a starting concentration of 10 μg/ml in FACS buffer and underwent a four-fold seven point serial dilution for testing with H460 cells and a three-fold three point serial dilution for the H226 cells. Cell pellets were resuspended in 100 μl of the serially diluted samples and incubated at 4° C. for 30 minutes. After the incubation, cells were pelleted, washed twice with 100 μl of FACS buffer and resuspended in either Alexa Fluor 647 anti-mouse or anti-human (Thermo Fisher) diluted to 5 μg/ml in FACS buffer. After incubation at 4° C. for 30 minutes, cells were pelleted, washed twice with 100 μl of FACS buffer and resuspended in 200 μl per well 1×BD CellFix solution (BD Pharmingen, Berkshire, UK). Median fluorescence intensity (MFI) was measured using an Attune NxT Flow Cytometer (Thermo Fisher, Loughborough, UK) and 10,000 gated events were acquired per sample. For data analysis, live cell populations were gated based on the forward and side scatter dot plot allowing the Alexa Fluor 647 MFI values to be measured in the RL1 channel.

[2] = target: T2, recombinant human EphA5 (rhEphA5) antigen (human, UniProt P54756 25-573); experiment: SPR multi-cycle kinetics (Biacore T200), purified IgG captured on anti-human IgG CM5 chip, recombinant EphA5 as analyte, 1:1 fit
T2 construct: also called human EphA5 (R and D systems, Cat. No. 3036-A5); recombinant EphA5
Experimental: HBS-P+(GE Healthcare, Uppsala, Sweden), supplemented with 1% BSA w/v (Sigma, Dorset, UK) was used as running buffer as well as for ligand and analyte dilutions. Purified lead antibodies were diluted to 0.5 μg/mL in running buffer and at the start of each cycle, loaded onto Fc2, Fc3 and Fc4 of an anti-human IgG CM5 sensor chip (GE Healthcare, Little Chalfont, UK). […] The surface was then allowed to stabilize.
Multi-cycle kinetic data was obtained using recombinant EphA5 as the analytes injected at a flow rate of 30 μl/min to minimize any potential mass transfer effects. […] For each concentration, the association phases were monitored for 210 seconds and the dissociation phase was measured for 900 seconds. Regeneration of the sensor chip surface was conducted between cycles using two injections of 3 M MgCl2. Multiple repeats of a blank and of EphA5 were programmed into the kinetic run in order to check the stability of both the surface and analyte over the kinetic cycles.
The signal from the reference channel Fc1 (no IgG captured) was subtracted from that of Fc2, Fc3 and Fc4 to correct for bulk effect and differences in non-specific binding to a reference surface. The signal from each IgG blank run (IgG captured but no antigen) was subtracted to correct for differences in surface stability. The double referenced sensorgrams were fitted with the Langmuir (1:1) binding model where the closeness of fit of the data to the model is evaluated using the Chi square value which describes the deviation between the experimental and fitted (observed and expected) curves. The fitting algorithm seeks to minimize the Chi square value.

[3] = target: T2, recombinant human EphA5 (rhEphA5) …; experiment: SPR single-cycle kinetics (Biacore T200), IgG from HEK supernatant captured on anti-human IgG CM5 chip, rhEphA5 as analyte, 1:1 fit; set-up: Relative KD: reference not given here
Experimental: Kinetic analysis was carried out on a Biacore T200. Each antibody was captured on a CM5 chip coupled with an anti-human IgG using standard amine chemistry before increasing concentrations of antigen were injected and a single off-rate was determined.
Kinetic experiments were performed at 25° C. on a Biacore T200 running Biacore T200 Control software V2.0.1 and Evaluation software V3.0 (Cytiva, Uppsala, Sweden).
HBS-P+ (Cytiva, Uppsala, Sweden), supplemented with 1% BSA (Sigma, Dorset, UK) was used as running buffer as well as for ligand and analyte dilutions. Supernatants containing IgG were diluted in running buffer to 1 μg/mL. At the start of each cycle, antibodies were loaded onto Fc2, Fc3 and Fc4 of an anti-human IgG CM5 sensor chip (Cytiva, Little Chalfont, UK). Ig were captured at a flow rate of […] to give an immobilization level (RL) of ˜60 RU. The surface was then allowed to stabilize.

[4] = target: T1, human EPH receptor A5 (EphA5) expressed …; experiment: flow cytometry on H460 (EphA5+) cells, goat anti-mouse Alexa Fluor 647 detection
[5] = target: T2, recombinant human EphA5 (rhEphA5) …; experiment: SPR (Biacore T200), IgG captured on anti-human IgG chip, rhEphA5 as analyte, 1:1 fit; table does not say single- or multi-cycle
FCGR1A [6] = target: T3, FCGR1A (human, UniProt P12314); experiment: Membrane Proteome Array screen, human membrane protein clones expressed in cells, flow cytometry (Table E4: HEK-293T, antibody 20 µg/ml)
T3 construct: clone overexpressed in live cells from an expression plasmid; Labelled point above the threshold in the Membrane Proteome Array plots of both H4K3 and H5K3

FCGR1A [7] = target: T3, FCGR1A; experiment: as above; remark: listed apart in the source

T2 sequence (P54756 25-573 limits assumed): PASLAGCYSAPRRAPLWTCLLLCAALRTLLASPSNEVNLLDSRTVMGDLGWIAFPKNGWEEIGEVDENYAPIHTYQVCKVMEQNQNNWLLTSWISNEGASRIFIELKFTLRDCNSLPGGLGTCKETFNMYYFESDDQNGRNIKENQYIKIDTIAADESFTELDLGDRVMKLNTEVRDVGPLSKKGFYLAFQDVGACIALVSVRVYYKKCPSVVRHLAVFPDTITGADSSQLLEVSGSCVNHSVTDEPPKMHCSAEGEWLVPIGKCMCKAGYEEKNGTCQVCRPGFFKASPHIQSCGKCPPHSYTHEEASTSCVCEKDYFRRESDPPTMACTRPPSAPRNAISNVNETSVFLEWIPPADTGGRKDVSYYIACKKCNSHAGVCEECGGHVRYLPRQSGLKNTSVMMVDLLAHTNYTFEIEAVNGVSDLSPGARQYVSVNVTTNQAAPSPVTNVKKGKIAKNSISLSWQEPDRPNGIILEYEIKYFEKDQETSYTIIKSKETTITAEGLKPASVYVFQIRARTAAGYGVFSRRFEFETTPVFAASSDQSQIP
T1 sequence (P54756 25-1037 limits assumed): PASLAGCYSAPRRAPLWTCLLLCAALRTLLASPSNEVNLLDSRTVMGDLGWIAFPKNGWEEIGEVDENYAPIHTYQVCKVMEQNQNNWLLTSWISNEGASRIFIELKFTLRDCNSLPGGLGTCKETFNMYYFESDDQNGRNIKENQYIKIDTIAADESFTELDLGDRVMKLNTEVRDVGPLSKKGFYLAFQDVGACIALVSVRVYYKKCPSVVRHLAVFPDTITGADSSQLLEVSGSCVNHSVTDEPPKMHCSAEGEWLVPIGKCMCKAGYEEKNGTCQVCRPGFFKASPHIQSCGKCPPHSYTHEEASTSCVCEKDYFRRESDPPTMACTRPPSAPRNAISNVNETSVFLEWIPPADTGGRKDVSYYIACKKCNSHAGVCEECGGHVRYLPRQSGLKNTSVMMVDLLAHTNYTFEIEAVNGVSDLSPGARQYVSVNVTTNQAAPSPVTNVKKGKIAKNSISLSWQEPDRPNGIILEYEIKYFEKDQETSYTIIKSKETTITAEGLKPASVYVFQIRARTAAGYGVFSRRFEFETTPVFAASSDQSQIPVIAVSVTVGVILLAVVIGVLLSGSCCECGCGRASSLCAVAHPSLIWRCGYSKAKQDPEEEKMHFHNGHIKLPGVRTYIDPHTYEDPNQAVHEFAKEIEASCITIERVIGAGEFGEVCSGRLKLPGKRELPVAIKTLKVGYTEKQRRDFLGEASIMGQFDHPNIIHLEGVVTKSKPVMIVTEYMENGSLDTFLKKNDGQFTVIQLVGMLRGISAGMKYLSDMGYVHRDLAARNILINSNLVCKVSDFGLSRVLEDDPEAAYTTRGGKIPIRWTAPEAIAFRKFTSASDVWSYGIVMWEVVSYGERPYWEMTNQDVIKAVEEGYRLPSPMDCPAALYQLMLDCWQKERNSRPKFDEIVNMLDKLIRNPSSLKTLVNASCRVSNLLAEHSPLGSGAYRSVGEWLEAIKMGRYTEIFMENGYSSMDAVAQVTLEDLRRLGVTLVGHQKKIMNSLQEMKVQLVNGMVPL
T3 sequence (P12314 16-374 limits assumed): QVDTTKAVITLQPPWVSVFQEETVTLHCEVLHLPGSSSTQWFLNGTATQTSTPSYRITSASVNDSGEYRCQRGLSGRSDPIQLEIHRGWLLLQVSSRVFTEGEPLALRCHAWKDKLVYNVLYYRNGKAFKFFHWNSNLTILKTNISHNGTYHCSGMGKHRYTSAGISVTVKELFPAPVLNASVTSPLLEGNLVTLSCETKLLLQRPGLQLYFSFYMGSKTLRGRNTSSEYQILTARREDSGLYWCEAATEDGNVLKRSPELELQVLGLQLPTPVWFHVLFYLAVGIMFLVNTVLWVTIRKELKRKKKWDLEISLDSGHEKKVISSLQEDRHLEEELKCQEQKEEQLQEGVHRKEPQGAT

| Binder | EC50 [1] [µg/mL] | Max. Binding (MFI) [1] [MFI] | Kd [2] [nM] | Relative KD [2] | koff [2] [s⁻¹] | Kd [3] [nM] | Relative KD [3] | koff [3] [s⁻¹] | EC50 (read off the curve) [4] [µg/mL] | Kd [5] [nM] | koff [5] [s⁻¹] | kon [5] [M⁻¹ s⁻¹] | binding result (FCGR1A [6]) | binding result (FCGR1A [7]) |
| --- | --- | --- | --- | --- | --- | --- | --- | --- | --- | --- | --- | --- | --- | --- |
| B1 | 0.017 | 37500 | 1.04 | 0.67 | 0.00132 | 1.05 | 0.79 | 0.0014 |  |  |  |  |  |  |
| B2 | 0.025 | 27300 |  |  |  |  |  |  | ~0.05 |  |  |  |  |  |
| B3 | 0.015 | 35400 |  |  |  | 1.33 | 1 | 0.00153 |  | 1.56 | 0.0015 | 965000 |  |  |
| B4 |  |  |  |  |  | 1.04 | 0.78 | 0.00127 |  |  |  |  |  |  |
| B5 | 0.018 | 36500 | 1.08 | 0.69 | 0.00142 | 0.956 | 0.72 | 0.00128 |  |  |  |  |  |  |
| B6 |  |  |  |  |  | 9.49 | 7.14 | 0.165 |  |  |  |  |  |  |
| B7 |  |  |  |  |  | 7.1 | 5.34 | 0.285 |  |  |  |  |  |  |
| B8 |  |  |  |  |  | 0.947 | 0.71 | 0.00127 |  |  |  |  |  |  |
| B9 |  |  |  |  |  | 9.76 | 7.34 | 0.209 |  |  |  |  |  |  |
| B10 |  |  |  |  |  | 1.03 | 0.77 | 0.0014 |  |  |  |  |  |  |
| B11 | 0.018 | 36700 | 0.937 | 0.6 | 0.00139 | 1.04 | 0.78 | 0.00137 |  |  |  |  | binds |  |
| B12 |  |  |  |  |  | 10 | 7.52 | 0.165 |  |  |  |  |  |  |
| B13 | 0.019 | 36500 |  |  |  | 1.03 | 0.77 | 0.0014 |  | 1.11 | 0.00135 | 1.21e+06 |  | binds |
| B14 |  |  |  |  |  | 6.52 | 4.9 | 0.341 |  |  |  |  |  |  |
| B15 | 0.017 | 36900 | 0.934 | 0.6 | 0.00125 | 0.892 | 0.67 | 0.00123 |  |  |  |  |  |  |
| B16 | 0.018 | 35900 | 1.04 | 0.67 | 0.00128 | 1.04 | 0.78 | 0.00141 |  |  |  |  |  |  |

Source: patent US20240115722A1 (RUTGERS THE STATE UNIVERSITY OF NEW JERSEY, published 2024)
